Patent US20240117018A1

Assays:
Assay in all cases: cell-based or functional assay
[1] = target: HIV-1 Env pseudovirus Q23.17 (HIV-1)
[2] = target: HIV-1 Env pseudovirus Ce703010054_2A2 (HIV-1)
[3] = target: HIV-1 Env pseudovirus CNE20 (HIV-1)
[4] = target: HIV-1 Env pseudovirus SC422661.8 (HIV-1)
[5] = target: HIV-1 Env pseudovirus 1394C9G1(Rev-) (HIV-1)
[6] = target: HIV-1 Env pseudovirus MS208.A1 (HIV-1)
[7] = target: HIV-1 Env pseudovirus Du156.12 (HIV-1)
[8] = target: HIV-1 Env pseudovirus ZM214M.PL15 (HIV-1)
[9] = target: HIV-1 Env pseudovirus CNE58 (HIV-1)
[10] = target: HIV-1 Env pseudovirus Q461.e2 (HIV-1)
[11] = target: HIV-1 Env pseudovirus REJO4541.67 (HIV-1)
[12] = target: HIV-1 Env pseudovirus Ce1086_B2 (HIV-1)
[13] = target: HIV-1 Env pseudovirus AC10.0.29 (HIV-1)
[14] = target: HIV-1 Env pseudovirus Du422.1 (HIV-1)
[15] = target: HIV-1 Env pseudovirus C2101.c01 (HIV-1)
[16] = target: HIV-1 Env pseudovirus T278-50 (HIV-1)
[17] = target: HIV-1 Env pseudovirus 6952.v1.c20 (HIV-1)
[18] = target: HIV-1 Env pseudovirus 3817.v2.c59 (HIV-1)
[19] = target: HIV-1 Env pseudovirus T250-4 (HIV-1)

## N49P11 (antibody)
[1]
  IC50: 0.034 µg/mL
  IC80: 0.254 µg/mL
  MPI: 100
[2]
  IC50: 1.42 µg/mL
  IC80: 7.51 µg/mL
  MPI: 100
[3]
  IC50: 5.19 µg/mL
  IC80: 22.6 µg/mL
  MPI: 100
[4]
  IC50: 0.729 µg/mL
  IC80: 3.49 µg/mL
  MPI: 100
[5]
  IC50: 6.13 µg/mL
  IC80: 22.3 µg/mL
  MPI: 100
[6]
  IC50: 0.259 µg/mL
  IC80: 1.94 µg/mL
  MPI: 100
[7]
  IC50: 2.4 µg/mL
  IC80: 12 µg/mL
  MPI: 100
[8]
  IC50: 1.35 µg/mL
  IC80: 8.98 µg/mL
  MPI: 100
[9]
  IC50: 0.038 µg/mL
  IC80: 0.135 µg/mL
  MPI: 100
[10]
  IC50: 0.363 µg/mL
  IC80: 2.15 µg/mL
  MPI: 100
[11]
  IC50: 10.8 µg/mL
  IC80: 27.1 µg/mL
  MPI: 100
[12]
  IC50: 2.19 µg/mL
  IC80: 11.7 µg/mL
  MPI: 100
[13]
  IC50: 5.52 µg/mL
  IC80: 20 µg/mL
  MPI: 100
[14]
  IC50: 8.81 µg/mL
  IC80: 21.2 µg/mL
  MPI: 100

## N49P7.2 (antibody)
[1]
  IC50: 0.051 µg/mL
  IC80: 0.2 µg/mL
  MPI: 100
[2]
  IC50: 0.124 µg/mL
  IC80: 0.576 µg/mL
  MPI: 100
[3]
  IC50: 0.119 µg/mL
  IC80: 0.574 µg/mL
  MPI: 99
[4]
  IC50: 0.119 µg/mL
  IC80: 0.564 µg/mL
  MPI: 100
[5]
  IC50: > 50 µg/mL
  IC80: > 50 µg/mL
  MPI: 20
[6]
  IC50: 0.186 µg/mL
  IC80: 0.966 µg/mL
  MPI: 100
[7]
  IC50: 0.058 µg/mL
  IC80: 0.21 µg/mL
  MPI: 100
[8]
  IC50: 0.559 µg/mL
  IC80: 4.53 µg/mL
  MPI: 100
[9]
  IC50: 0.045 µg/mL
  IC80: 0.129 µg/mL
  MPI: 100
[10]
  IC50: 0.472 µg/mL
  IC80: 2.24 µg/mL
  MPI: 100
[11]
  IC50: 0.018 µg/mL
  IC80: 0.08 µg/mL
  MPI: 100
[12]
  IC50: 0.166 µg/mL
  IC80: 1 µg/mL
  MPI: 100
[13]
  IC50: 44.2 µg/mL
  IC80: > 50 µg/mL
  MPI: 53
[14]
  IC50: > 50 µg/mL
  IC80: > 50 µg/mL
  MPI: 22

## 8ANC195 (antibody)
[15]
  IC50 (Titer in TZM.bl cells): 0.48 µg/mL
  IC80 (Titer in TZM.bl cells): 3.54 µg/mL
[16]
  IC50 (Titer in TZM.bl cells): > 50 µg/mL
  IC80 (Titer in TZM.bl cells): > 50 µg/mL
[17]
  IC50 (Titer in TZM.bl cells): 1.38 µg/mL
  IC80 (Titer in TZM.bl cells): 7.22 µg/mL
[18]
  IC50 (Titer in TZM.bl cells): 1 µg/mL
  IC80 (Titer in TZM.bl cells): 5.3 µg/mL
[19]
  IC50 (Titer in TZM.bl cells): > 50 µg/mL
  IC80 (Titer in TZM.bl cells): > 50 µg/mL

## VRC07 (antibody)
[15]
  IC50 (Titer in TZM.bl cells): 0.238 µg/mL
  IC80 (Titer in TZM.bl cells): 1.4 µg/mL
[16]
  IC50 (Titer in TZM.bl cells): > 50 µg/mL
  IC80 (Titer in TZM.bl cells): > 50 µg/mL
[17]
  IC50 (Titer in TZM.bl cells): 0.064 µg/mL
  IC80 (Titer in TZM.bl cells): 0.181 µg/mL
[18]
  IC50 (Titer in TZM.bl cells): 1.9 µg/mL
  IC80 (Titer in TZM.bl cells): 19.8 µg/mL
[19]
  IC50 (Titer in TZM.bl cells): > 50 µg/mL
  IC80 (Titer in TZM.bl cells): > 50 µg/mL

## VRC01 (antibody)
[1]
  IC50 (Titer in TZM.bl cells): 0.09 µg/mL
  IC80 (Titer in TZM.bl cells): 0.261 µg/mL
[2]
  IC50 (Titer in TZM.bl cells): 0.53 µg/mL
  IC80 (Titer in TZM.bl cells): 1.84 µg/mL
[4]
  IC50 (Titer in TZM.bl cells): 0.08 µg/mL
  IC80 (Titer in TZM.bl cells): 0.265 µg/mL
[15]
  IC50 (Titer in TZM.bl cells): 0.36 µg/mL
  IC80 (Titer in TZM.bl cells): 1.17 µg/mL
[5]
  IC50 (Titer in TZM.bl cells): 0.36 µg/mL
  IC80 (Titer in TZM.bl cells): 1.28 µg/mL
[16]
  IC50 (Titer in TZM.bl cells): > 50 µg/mL
  IC80 (Titer in TZM.bl cells): > 50 µg/mL
[6]
  IC50 (Titer in TZM.bl cells): 0.1 µg/mL
  IC80 (Titer in TZM.bl cells): 0.46 µg/mL
[7]
  IC50 (Titer in TZM.bl cells): 0.09 µg/mL
  IC80 (Titer in TZM.bl cells): 0.193 µg/mL
[17]
  IC50 (Titer in TZM.bl cells): 0.04 µg/mL
  IC80 (Titer in TZM.bl cells): 0.12 µg/mL
[8]
  IC50 (Titer in TZM.bl cells): 0.44 µg/mL
  IC80 (Titer in TZM.bl cells): 2.6 µg/mL
[10]
  IC50 (Titer in TZM.bl cells): 0.49 µg/mL
  IC80 (Titer in TZM.bl cells): 1.6 µg/mL
[18]
  IC50 (Titer in TZM.bl cells): > 50 µg/mL
  IC80 (Titer in TZM.bl cells): > 50 µg/mL
[11]
  IC50 (Titer in TZM.bl cells): 0.06 µg/mL
  IC80 (Titer in TZM.bl cells): 0.25 µg/mL
[12]
  IC50 (Titer in TZM.bl cells): 0.42 µg/mL
  IC80 (Titer in TZM.bl cells): 1.44 µg/mL
[19]
  IC50 (Titer in TZM.bl cells): > 50 µg/mL
  IC80 (Titer in TZM.bl cells): > 50 µg/mL
[13]
  IC50 (Titer in TZM.bl cells): 2.2 µg/mL
  IC80 (Titer in TZM.bl cells): 6.5 µg/mL
[14]
  IC50 (Titer in TZM.bl cells): > 50 µg/mL
  IC80 (Titer in TZM.bl cells): > 50 µg/mL

## N49P18.1 (antibody)
[1]
  IC50: 1.16 µg/mL
  IC80: 6.93 µg/mL
  MPI: 100
[2]
  IC50: 4.15 µg/mL
  IC80: 11.6 µg/mL
  MPI: 98
[3]
  IC50: 1.33 µg/mL
  IC80: 6.36 µg/mL
  MPI: 100
[4]
  IC50: 14.1 µg/mL
  IC80: 43.4 µg/mL
  MPI: 84
[5]
  IC50: > 50 µg/mL
  IC80: > 50 µg/mL
  MPI: 17
[6]
  IC50: 8.31 µg/mL
  IC80: 33.3 µg/mL
  MPI: 88
[7]
  IC50: 1.88 µg/mL
  IC80: 6.81 µg/mL
  MPI: 100
[8]
  IC50: > 50 µg/mL
  IC80: > 50 µg/mL
  MPI: 20
[9]
  IC50: 1.92 µg/mL
  IC80: 5.26 µg/mL
  MPI: 100
[10]
  IC50: 24.7 µg/mL
  IC80: > 50 µg/mL
  MPI: 68
[11]
  IC50: 4.08 µg/mL
  IC80: 30.1 µg/mL
  MPI: 89
[12]
  IC50: 8.98 µg/mL
  IC80: 48 µg/mL
  MPI: 92
[13]
  IC50: 20 µg/mL
  IC80: > 50 µg/mL
  MPI: 71
[14]
  IC50: 21.5 µg/mL
  IC80: > 50 µg/mL
  MPI: 75

## 3BNC117 (antibody)
[15]
  IC50 (Titer in TZM.bl cells): 0.05 µg/mL
  IC80 (Titer in TZM.bl cells): 0.31 µg/mL
[16]
  IC50 (Titer in TZM.bl cells): > 15 µg/mL
  IC80 (Titer in TZM.bl cells): > 15 µg/mL
[17]
  IC50 (Titer in TZM.bl cells): 0.15 µg/mL
  IC80 (Titer in TZM.bl cells): 0.75 µg/mL
[18]
  IC50 (Titer in TZM.bl cells): 0.15 µg/mL
  IC80 (Titer in TZM.bl cells): 0.52 µg/mL
[19]
  IC50 (Titer in TZM.bl cells): > 15 µg/mL
  IC80 (Titer in TZM.bl cells): > 15 µg/mL
